Source: the supplement of paper PMC9112550, “Optimization of the antimicrobial peptide Bac7 by deep mutational scanning” (BMC Biology, 2022)
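Further: peptides expressed intracellularly from a pBAD plasmid library in pooled LB shake-flask culture, induced with 0.3% L-arabinose, DNA abundance read by NGS, three biological replicates, DESeq2 with apeglm shrinkage.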

The sequences below were run on Escherichia coli TOP10 (assay: shrunken log2 fold change of peptide-encoding DNA abundance (4.5 h post-induction vs induction); higher = less antimicrobial activity (less host growth inhibition)). Conditions: time post-induction: 4.5 h; library: site-saturation at positions 5, 18, 19, 20.
RRIRMRPPRLPRPRPRPKFCPRP was tested, and the “shrunken log2 fold change” value was 0.0393. RRIRMRPPRLPRPRPRPKFKPRP was tested, and the “shrunken log2 fold change” value was -0.0108. RRIRMRPPRLPRPRPRPKHCPRP was tested, and the “shrunken log2 fold change” value was 0.0651. In the case of RRIRMRPPRLPRPRPRPKHRPRP, the “shrunken log2 fold change” value was 0.229. For RRIRMRPPRLPRPRPRPKIVPRP, the “shrunken log2 fold change” value was 0.0132. With RRIRMRPPRLPRPRPRPKKHPRP the “shrunken log2 fold change” value was 0.405. RRIRMRPPRLPRPRPRPKLFPRP was tested, and the “shrunken log2 fold change” value was 0.244. In the case of RRIRMRPPRLPRPRPRPKLMPRP, the “shrunken log2 fold change” value was 0.718. With RRIRMRPPRLPRPRPRPKLPPRP the “shrunken log2 fold change” value was 1.13. With RRIRMRPPRLPRPRPRPKMDPRP the “shrunken log2 fold change” value was 1.2. With RRIRMRPPRLPRPRPRPKMHPRP the “shrunken log2 fold change” value was 0.42. RRIRMRPPRLPRPRPRPKNPPRP was tested, and the “shrunken log2 fold change” value was 0.145. RRIRMRPPRLPRPRPRPKNVPRP was tested, and the “shrunken log2 fold change” value was -0.16. For RRIRMRPPRLPRPRPRPKNWPRP, the “shrunken log2 fold change” value was 0.671. For RRIRMRPPRLPRPRPRPKPAPRP, the “shrunken log2 fold change” value was 1.55. With RRIRMRPPRLPRPRPRPKPPPRP the “shrunken log2 fold change” value was 1.64. In the case of RRIRMRPPRLPRPRPRPKQAPRP, the “shrunken log2 fold change” value was 3.56. RRIRMRPPRLPRPRPRPKQFPRP was tested, and the “shrunken log2 fold change” value was 0.255. For RRIRMRPPRLPRPRPRPKQKPRP, the “shrunken log2 fold change” value was 0.0402. RRIRMRPPRLPRPRPRPKQPPRP was tested, and the “shrunken log2 fold change” value was 2.34. In the case of RRIRMRPPRLPRPRPRPKRFPRP, the “shrunken log2 fold change” value was 0.483. For RRIRMRPPRLPRPRPRPKRIPRP, the “shrunken log2 fold change” value was 0.609. With RRIRMRPPRLPRPRPRPKRYPRP the “shrunken log2 fold change” value was 0.407. In the case of RRIRMRPPRLPRPRPRPKSIPRP, the “shrunken log2 fold change” value was 0.301. In the case of RRIRMRPPRLPRPRPRPKTIPRP, the “shrunken log2 fold change” value was 0.0873. With RRIRMRPPRLPRPRPRPKVSPRP the “shrunken log2 fold change” value was 0.0176. For RRIRMRPPRLPRPRPRPKWHPRP, the “shrunken log2 fold change” value was 0.349. For RRIRMRPPRLPRPRPRPKWMPRP, the “shrunken log2 fold change” value was 0.21. For RRIRMRPPRLPRPRPRPKYHPRP, the “shrunken log2 fold change” value was -0.488. In the case of RRIRMRPPRLPRPRPRPKYIPRP, the “shrunken log2 fold change” value was -0.161. RRIRMRPPRLPRPRPRPKYKPRP was tested, and the “shrunken log2 fold change” value was -0.0345. In the case of RRIRMRPPRLPRPRPRPLDWPRP, the “shrunken log2 fold change” value was 0.474. With RRIRMRPPRLPRPRPRPLEIPRP the “shrunken log2 fold change” value was 0.103. With RRIRMRPPRLPRPRPRPLFAPRP the “shrunken log2 fold change” value was 0.556. In the case of RRIRMRPPRLPRPRPRPLFKPRP, the “shrunken log2 fold change” value was -0.0689. With RRIRMRPPRLPRPRPRPLFLPRP the “shrunken log2 fold change” value was -0.254. RRIRMRPPRLPRPRPRPLIHPRP was tested, and the “shrunken log2 fold change” value was -0.207. With RRIRMRPPRLPRPRPRPLIYPRP the “shrunken log2 fold change” value was -0.0335. For RRIRMRPPRLPRPRPRPLLSPRP, the “shrunken log2 fold change” value was 0.17. With RRIRMRPPRLPRPRPRPLMSPRP the “shrunken log2 fold change” value was 0.00915. With RRIRMRPPRLPRPRPRPLMWPRP the “shrunken log2 fold change” value was 0.268. With RRIRMRPPRLPRPRPRPLNGPRP the “shrunken log2 fold change” value was -0.00843. In the case of RRIRMRPPRLPRPRPRPLNVPRP, the “shrunken log2 fold change” value was 0.0507. For RRIRMRPPRLPRPRPRPLQGPRP, the “shrunken log2 fold change” value was 0.126. With RRIRMRPPRLPRPRPRPLQRPRP the “shrunken log2 fold change” value was 0.0735. With RRIRMRPPRLPRPRPRPLQWPRP the “shrunken log2 fold change” value was 0.104. With RRIRMRPPRLPRPRPRPLRRPRP the “shrunken log2 fold change” value was 1.94. In the case of RRIRMRPPRLPRPRPRPLTDPRP, the “shrunken log2 fold change” value was 1.69. For RRIRMRPPRLPRPRPRPLTKPRP, the “shrunken log2 fold change” value was 0.212. In the case of RRIRMRPPRLPRPRPRPLTWPRP, the “shrunken log2 fold change” value was 0.308. With RRIRMRPPRLPRPRPRPLVDPRP the “shrunken log2 fold change” value was 0.526. RRIRMRPPRLPRPRPRPLVHPRP was tested, and the “shrunken log2 fold change” value was 0.035. RRIRMRPPRLPRPRPRPMALPRP was tested, and the “shrunken log2 fold change” value was 0.517. In the case of RRIRMRPPRLPRPRPRPMCCPRP, the “shrunken log2 fold change” value was 0.207. For RRIRMRPPRLPRPRPRPMDEPRP, the “shrunken log2 fold change” value was 2.34. In the case of RRIRMRPPRLPRPRPRPMGQPRP, the “shrunken log2 fold change” value was 0.579. RRIRMRPPRLPRPRPRPMHPPRP was tested, and the “shrunken log2 fold change” value was 0.0065. In the case of RRIRMRPPRLPRPRPRPMIVPRP, the “shrunken log2 fold change” value was -0.101. RRIRMRPPRLPRPRPRPMIYPRP was tested, and the “shrunken log2 fold change” value was -0.178. With RRIRMRPPRLPRPRPRPMKCPRP the “shrunken log2 fold change” value was 0.0208. For RRIRMRPPRLPRPRPRPMKFPRP, the “shrunken log2 fold change” value was 0.0534. With RRIRMRPPRLPRPRPRPMKIPRP the “shrunken log2 fold change” value was -0.00146. With RRIRMRPPRLPRPRPRPMKSPRP the “shrunken log2 fold change” value was 0.0897. For RRIRMRPPRLPRPRPRPMLAPRP, the “shrunken log2 fold change” value was 2.84. For RRIRMRPPRLPRPRPRPMMIPRP, the “shrunken log2 fold change” value was -0.025. In the case of RRIRMRPPRLPRPRPRPMNCPRP, the “shrunken log2 fold change” value was -0.00776. For RRIRMRPPRLPRPRPRPMPGPRP, the “shrunken log2 fold change” value was 0.0377. RRIRMRPPRLPRPRPRPMQNPRP was tested, and the “shrunken log2 fold change” value was 0.365. RRIRMRPPRLPRPRPRPMQYPRP was tested, and the “shrunken log2 fold change” value was -0.315. For RRIRMRPPRLPRPRPRPMRNPRP, the “shrunken log2 fold change” value was 1.62. With RRIRMRPPRLPRPRPRPMSFPRP the “shrunken log2 fold change” value was -0.0179. With RRIRMRPPRLPRPRPRPMSTPRP the “shrunken log2 fold change” value was 0.0207. For RRIRMRPPRLPRPRPRPMTFPRP, the “shrunken log2 fold change” value was -0.512. RRIRMRPPRLPRPRPRPMTQPRP was tested, and the “shrunken log2 fold change” value was 0.22. For RRIRMRPPRLPRPRPRPMVGPRP, the “shrunken log2 fold change” value was -0.06.
